Holding throughout (experiment): cell-based or functional assay
The target of test [1] is tPA (Activase, Genentech) (human, UniProt P00750 36-562).
Test [2] has as its target Thrombin (Haematologic Technologies) (human, UniProt P00734 328-622).
The target in test [3] is T1, Factor XIIa (American Diagnostica) (human, UniProt P00748 20-615, limits assumed).
T1 sequence (looked up): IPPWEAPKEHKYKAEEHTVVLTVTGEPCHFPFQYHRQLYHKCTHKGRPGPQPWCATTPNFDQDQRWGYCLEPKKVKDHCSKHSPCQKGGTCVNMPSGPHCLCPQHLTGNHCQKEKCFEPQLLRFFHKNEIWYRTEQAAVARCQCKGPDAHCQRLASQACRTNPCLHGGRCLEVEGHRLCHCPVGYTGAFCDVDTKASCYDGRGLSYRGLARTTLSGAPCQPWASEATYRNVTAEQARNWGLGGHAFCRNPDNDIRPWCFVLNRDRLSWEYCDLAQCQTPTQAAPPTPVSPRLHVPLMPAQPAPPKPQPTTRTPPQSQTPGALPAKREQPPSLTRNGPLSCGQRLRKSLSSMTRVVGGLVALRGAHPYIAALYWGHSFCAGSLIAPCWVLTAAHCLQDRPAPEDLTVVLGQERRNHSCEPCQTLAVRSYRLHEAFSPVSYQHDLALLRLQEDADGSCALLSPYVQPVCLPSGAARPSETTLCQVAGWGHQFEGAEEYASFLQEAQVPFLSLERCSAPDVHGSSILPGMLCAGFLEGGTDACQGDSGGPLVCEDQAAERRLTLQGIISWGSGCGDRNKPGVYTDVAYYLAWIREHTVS

Test [4] deals with uPA (Chemicon) (human, UniProt P00749 21-431, limits assumed).
Test [5] has as its target T2, Hepatocyte growth factor activator (HGFA), activated 34 kDa short form, residues Val373 to Ser655 with a … (human, UniProt Q04756 408-655, single N-acetylglucosamine attached to Asn74 (chymotrypsinogen numbering)).
T2 sequence 1: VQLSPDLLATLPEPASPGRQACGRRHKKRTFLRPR
T2 sequence 2: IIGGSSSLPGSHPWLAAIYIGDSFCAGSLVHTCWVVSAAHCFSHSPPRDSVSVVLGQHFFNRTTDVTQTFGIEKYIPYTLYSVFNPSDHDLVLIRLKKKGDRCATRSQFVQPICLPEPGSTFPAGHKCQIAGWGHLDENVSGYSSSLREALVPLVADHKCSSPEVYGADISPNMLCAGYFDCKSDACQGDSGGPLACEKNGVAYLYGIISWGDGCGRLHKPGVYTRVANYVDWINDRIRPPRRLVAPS

Test [6] concerns the target Chymotrypsin (Sigma) (human, UniProt P17538 19-263).
Test [7] addresses Bovine trypsin (Worthington) (bovine, UniProt P00760 24-246).
Test [8] has as its target Factor Xa (Haematologic Technologies) (human, UniProt P00742 41-179; P00742 235-488, limits assumed).
The target in test [9] is Factor XIa (Haematologic Technologies) (human, UniProt P03951 19-625).
For test [10], the target named is Tissue factor/factor VIIa complex: human tissue factor (residues 1-219) with human recombinant FVIIa (human, UniProt P13726 33-251; P08709 61-466).
In test [11] the target is Hepsin (residues 45-417) (human, UniProt P05981 45-417).
Test [12] has as its target Plasmin (Haematologic Technologies) (human, UniProt P00747 97-810, limits assumed).
The target of test [13] is T3, Matriptase (residues 615-855) (human, UniProt Q9Y5Y6 615-855).
T3 sequence (looked up): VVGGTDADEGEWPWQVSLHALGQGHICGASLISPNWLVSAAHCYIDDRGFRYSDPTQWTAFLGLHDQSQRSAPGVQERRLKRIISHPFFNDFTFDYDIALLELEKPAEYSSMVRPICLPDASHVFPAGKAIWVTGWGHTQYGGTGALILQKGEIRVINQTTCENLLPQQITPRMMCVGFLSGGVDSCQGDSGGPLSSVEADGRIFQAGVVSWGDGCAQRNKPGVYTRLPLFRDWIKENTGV

Test [14] concerns the target Plasma kallikrein (American Diagnostica) (human, UniProt P03952 20-638).
Test [15] concerns the target T4, Complement factor C1s (Calbiochem) (human, UniProt P09871 16-688).
T4 sequence (looked up): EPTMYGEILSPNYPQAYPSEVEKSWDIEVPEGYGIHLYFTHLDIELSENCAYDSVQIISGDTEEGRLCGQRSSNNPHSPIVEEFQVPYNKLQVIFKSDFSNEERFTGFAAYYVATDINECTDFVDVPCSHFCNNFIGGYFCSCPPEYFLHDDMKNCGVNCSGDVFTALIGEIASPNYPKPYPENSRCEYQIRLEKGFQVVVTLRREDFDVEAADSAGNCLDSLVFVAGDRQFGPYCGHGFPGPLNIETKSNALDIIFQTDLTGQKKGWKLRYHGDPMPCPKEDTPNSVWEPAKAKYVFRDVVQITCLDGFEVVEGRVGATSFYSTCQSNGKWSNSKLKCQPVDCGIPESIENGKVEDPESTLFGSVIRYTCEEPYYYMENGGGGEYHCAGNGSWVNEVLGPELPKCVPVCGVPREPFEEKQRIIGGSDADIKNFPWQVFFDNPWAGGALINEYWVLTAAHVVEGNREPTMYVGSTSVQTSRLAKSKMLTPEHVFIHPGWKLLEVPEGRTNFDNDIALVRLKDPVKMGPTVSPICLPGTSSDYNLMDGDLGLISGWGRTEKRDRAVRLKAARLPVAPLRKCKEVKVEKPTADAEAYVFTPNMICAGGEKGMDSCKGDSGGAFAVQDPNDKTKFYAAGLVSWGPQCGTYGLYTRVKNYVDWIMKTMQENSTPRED

Test [16] has as its target Activated Protein C (Haematologic Technologies) (human, UniProt P04070 43-197; P04070 212-461).

Bounds are passed on as bounds.

Sequence of Chymotrypsin (Sigma) (P17538 19-263): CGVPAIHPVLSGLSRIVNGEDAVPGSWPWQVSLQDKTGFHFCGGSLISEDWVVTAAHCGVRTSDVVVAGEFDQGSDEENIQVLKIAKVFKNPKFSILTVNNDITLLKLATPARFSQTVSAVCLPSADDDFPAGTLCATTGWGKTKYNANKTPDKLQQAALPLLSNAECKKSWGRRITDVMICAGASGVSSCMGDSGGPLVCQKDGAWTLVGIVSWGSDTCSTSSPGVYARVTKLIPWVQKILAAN
Sequence of Bovine trypsin (Worthington) (P00760 24-246): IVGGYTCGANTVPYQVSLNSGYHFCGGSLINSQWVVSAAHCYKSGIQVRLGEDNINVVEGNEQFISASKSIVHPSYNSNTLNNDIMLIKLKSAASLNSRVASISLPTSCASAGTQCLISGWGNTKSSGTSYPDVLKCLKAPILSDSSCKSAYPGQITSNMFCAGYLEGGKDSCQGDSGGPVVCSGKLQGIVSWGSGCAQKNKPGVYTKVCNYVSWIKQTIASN
Sequence of Hepsin (residues 45-417) (P05981 45-417 limits assumed): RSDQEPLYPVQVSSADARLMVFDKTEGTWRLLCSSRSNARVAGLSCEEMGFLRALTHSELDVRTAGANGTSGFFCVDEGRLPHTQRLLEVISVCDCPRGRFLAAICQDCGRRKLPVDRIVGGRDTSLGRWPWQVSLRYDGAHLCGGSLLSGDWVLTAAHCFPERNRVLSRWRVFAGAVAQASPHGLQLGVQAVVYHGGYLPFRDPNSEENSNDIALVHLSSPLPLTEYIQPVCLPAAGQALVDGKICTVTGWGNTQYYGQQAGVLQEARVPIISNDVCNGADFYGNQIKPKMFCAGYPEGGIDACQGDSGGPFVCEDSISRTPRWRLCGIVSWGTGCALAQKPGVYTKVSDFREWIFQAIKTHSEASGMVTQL
Sequence of Plasmin (Haematologic Technologies) (P00747 97-810 limits assumed): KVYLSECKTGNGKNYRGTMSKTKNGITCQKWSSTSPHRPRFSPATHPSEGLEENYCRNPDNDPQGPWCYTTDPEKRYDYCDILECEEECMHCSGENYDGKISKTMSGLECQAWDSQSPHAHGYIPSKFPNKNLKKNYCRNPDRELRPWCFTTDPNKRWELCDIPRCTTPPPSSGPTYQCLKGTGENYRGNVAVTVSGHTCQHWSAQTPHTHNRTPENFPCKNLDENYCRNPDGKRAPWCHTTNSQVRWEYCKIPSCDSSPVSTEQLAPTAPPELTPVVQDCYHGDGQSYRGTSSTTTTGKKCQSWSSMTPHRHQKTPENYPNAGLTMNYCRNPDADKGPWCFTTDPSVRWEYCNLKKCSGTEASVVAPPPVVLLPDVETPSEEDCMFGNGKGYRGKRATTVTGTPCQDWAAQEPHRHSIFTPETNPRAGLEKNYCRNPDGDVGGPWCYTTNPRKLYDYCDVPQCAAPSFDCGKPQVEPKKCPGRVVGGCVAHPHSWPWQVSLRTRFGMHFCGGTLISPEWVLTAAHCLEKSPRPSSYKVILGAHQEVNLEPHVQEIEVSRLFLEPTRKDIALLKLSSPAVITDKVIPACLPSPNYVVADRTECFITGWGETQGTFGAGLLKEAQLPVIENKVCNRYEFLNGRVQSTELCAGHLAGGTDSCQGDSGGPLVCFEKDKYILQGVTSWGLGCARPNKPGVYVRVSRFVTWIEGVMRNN
Sequence of tPA (Activase, Genentech) (P00750 36-562 limits assumed): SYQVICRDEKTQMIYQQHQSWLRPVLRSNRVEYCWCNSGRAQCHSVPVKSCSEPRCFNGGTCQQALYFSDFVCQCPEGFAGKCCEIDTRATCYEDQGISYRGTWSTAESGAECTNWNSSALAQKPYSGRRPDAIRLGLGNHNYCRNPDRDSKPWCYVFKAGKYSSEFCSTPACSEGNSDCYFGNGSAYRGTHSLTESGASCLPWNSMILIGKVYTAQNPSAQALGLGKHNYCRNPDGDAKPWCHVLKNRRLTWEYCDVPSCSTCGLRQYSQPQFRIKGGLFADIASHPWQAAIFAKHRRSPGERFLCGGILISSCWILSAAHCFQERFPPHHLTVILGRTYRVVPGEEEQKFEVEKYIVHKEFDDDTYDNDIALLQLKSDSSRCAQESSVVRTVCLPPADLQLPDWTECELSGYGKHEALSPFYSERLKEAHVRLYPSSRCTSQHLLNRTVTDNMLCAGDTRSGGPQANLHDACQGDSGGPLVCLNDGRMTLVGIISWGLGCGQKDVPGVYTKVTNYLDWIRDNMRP
Sequence of Activated Protein C (Haematologic Technologies) (P04070 43-197, form in doubt, chain 1 of 2): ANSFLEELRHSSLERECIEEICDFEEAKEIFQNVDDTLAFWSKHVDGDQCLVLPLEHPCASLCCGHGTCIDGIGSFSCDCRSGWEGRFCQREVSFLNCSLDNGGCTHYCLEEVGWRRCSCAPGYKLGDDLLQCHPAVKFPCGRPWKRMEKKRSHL
Sequence of Activated Protein C (Haematologic Technologies) (P04070 212-461, form in doubt, chain 2 of 2): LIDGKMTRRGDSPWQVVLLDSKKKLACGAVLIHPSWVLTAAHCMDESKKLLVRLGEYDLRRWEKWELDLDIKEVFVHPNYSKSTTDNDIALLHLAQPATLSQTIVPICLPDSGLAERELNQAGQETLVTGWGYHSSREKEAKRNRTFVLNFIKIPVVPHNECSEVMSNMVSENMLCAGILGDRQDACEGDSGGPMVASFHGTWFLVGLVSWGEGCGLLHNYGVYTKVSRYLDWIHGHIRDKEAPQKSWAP
Sequence of Tissue factor/factor VIIa complex: human tissue factor (residues 1-219) with human recombinant FVIIa (P13726 33-251 limits assumed, chain 1 of 2): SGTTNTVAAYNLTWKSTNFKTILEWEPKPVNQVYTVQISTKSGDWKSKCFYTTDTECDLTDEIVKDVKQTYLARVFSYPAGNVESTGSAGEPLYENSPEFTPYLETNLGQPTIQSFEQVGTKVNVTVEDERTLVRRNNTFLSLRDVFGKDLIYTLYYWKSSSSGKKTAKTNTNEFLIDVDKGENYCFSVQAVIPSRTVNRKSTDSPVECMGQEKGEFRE
Sequence of Tissue factor/factor VIIa complex: human tissue factor (residues 1-219) with human recombinant FVIIa (P08709 61-466 limits assumed, chain 2 of 2): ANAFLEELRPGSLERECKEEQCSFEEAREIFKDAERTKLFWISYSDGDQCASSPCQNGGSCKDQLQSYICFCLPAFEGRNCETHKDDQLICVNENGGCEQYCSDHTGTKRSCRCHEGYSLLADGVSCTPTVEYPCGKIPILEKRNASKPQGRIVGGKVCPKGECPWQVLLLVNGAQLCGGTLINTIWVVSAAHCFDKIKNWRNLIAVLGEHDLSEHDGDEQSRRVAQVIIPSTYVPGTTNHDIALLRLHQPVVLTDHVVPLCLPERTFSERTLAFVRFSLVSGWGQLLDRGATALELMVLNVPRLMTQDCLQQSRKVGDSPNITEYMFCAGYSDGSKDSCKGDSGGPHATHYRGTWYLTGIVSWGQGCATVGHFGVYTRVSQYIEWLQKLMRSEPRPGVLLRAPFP
Sequence of Plasma kallikrein (American Diagnostica) (P03952 20-638 limits assumed): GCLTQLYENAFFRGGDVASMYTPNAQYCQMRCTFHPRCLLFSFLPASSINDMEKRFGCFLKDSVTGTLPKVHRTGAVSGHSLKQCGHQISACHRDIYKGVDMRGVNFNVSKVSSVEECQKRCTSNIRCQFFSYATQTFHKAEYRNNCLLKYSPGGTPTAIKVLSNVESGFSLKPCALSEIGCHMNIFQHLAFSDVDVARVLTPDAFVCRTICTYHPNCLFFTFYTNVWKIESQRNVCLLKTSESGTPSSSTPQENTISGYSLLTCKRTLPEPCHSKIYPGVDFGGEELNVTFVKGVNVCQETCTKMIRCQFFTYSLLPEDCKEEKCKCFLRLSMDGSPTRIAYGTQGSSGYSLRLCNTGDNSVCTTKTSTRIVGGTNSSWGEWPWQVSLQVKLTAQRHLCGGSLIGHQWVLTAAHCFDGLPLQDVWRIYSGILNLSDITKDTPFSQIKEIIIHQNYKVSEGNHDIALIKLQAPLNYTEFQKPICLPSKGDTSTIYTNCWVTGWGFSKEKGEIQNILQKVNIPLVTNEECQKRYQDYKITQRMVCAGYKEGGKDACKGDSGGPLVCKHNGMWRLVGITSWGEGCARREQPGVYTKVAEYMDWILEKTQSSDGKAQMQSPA
Sequence of Factor Xa (Haematologic Technologies) (P00742 41-179 limits assumed, chain 1 of 2): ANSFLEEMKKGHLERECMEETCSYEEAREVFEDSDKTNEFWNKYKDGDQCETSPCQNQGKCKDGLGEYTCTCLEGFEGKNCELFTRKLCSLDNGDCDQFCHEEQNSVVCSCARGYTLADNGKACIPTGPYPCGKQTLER
Sequence of Factor Xa (Haematologic Technologies) (P00742 235-488 limits assumed, chain 2 of 2): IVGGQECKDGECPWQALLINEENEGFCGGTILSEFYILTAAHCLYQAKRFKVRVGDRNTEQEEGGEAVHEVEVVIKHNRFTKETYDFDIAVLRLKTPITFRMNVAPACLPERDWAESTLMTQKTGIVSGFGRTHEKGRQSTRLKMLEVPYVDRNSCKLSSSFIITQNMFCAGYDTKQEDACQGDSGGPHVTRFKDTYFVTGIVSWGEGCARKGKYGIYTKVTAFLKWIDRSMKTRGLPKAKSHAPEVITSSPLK

B1: First Kunitz domain (KD1) of human HAI-1B, amino acids 246-303 of the precursor, with N-terminal polyhistidine leader (other)
chain: MKHQHQHQHQHQHQMHQTEDYCLASNKVGRCRGSFPRWYYDPTEQICKSFVYGGCLGNKNNYLREEECILACRGV
Turning to B1, the “IC50 (nM), inhibition of enzyme activity on chromogenic substrate” value (from here on “IC50 (nM), inhibition of enzyme activity”) was above 1000 nM in [1]; above 1000 nM in [2]; above 1000 nM in test [3]; above 1000 nM in [4]; 4 nM in test [5]; above 1000 nM in test [6]. For the same molecule, the “IC50 (nM), inhibition of enzyme activity” value was 0.7 nM in test [7]; above 1000 nM in [8]; above 1000 nM in test [9]; above 1000 nM in test [10]; 6.7 nM in [11]; 115 nM in test [12]. Besides, the “IC50 (nM), inhibition of enzyme activity” value in [13] is 1.7 nM; in test [14], 21 nM; in test [15] it was above 1000 nM; in [16] it was above 1000 nM.
